Tests used:
[1] = biological target: T1, NR2B/RasGRF1 native complex (Rattus norvegicus, UniProt P28818+Q00960); test: competition co-immunoprecipitation of native NR2B-RasGRF1 complexes from rat brain microsomes; format: binding; conditions: NusA fusion proteins 3-5 μM; 6- to 8-week-old rat brains
T1 construct: from tissue; host or cells: P2 microsomes of 6- to 8-week-old rat brain
Method: Transfected cells were solubilized in lysis buffer (100 mM Tris-Cl [pH 8.5], 500 mM NaCl, 1% Triton X-100) supplemented with corn plete protease inhibitor (Roche) and immunoprecipitated with NR2B (Santa Cruz, sc-9057), NR1, or NR2A (Chemicon) antibody (5 μg/ml), washed with lysis buffer, separated on SDS gel, and blotted on PVDF. Blots were probed with anti-RasGRF1 (Santa Cruz) and the appropriate NR subunit antibody. 6- to 8-week-old rat brain P2 microsomes were isolated and solubilized as described (Luo, J., et al. (1997) Mol. Pharmacol. 51, 79-86). 80 μg of solubilized protein were immunoprecipitated with NR2B, RasGRF1, or pooled rabbit IgG, and immunoprecipitated proteins were probed on Western blot with RasGRF1 and NR2B antibodies. All immunoprecipitation experiments were only taken as valid if repeated 3-5 times with similar results. Routine negative controls with antigen pre-absorption were carried out for antibodies used in immunoprecipitation experiments. […]
For in vitro binding experiments, equimolar amounts of in vitro translated ^35S-labeled proteins (calculated from radioactivity of the excised protein band and cysteine content in the specific fragment) were incubated with a 3-fold molar excess of translated RasGRF1 for 30 min at 30° C., diluted with RIPA buffer, and immunoprecipitated with anti-HA-agarose (Santa Cruz). […]

NMDA receptor = test: evoked NMDA EPSCs in organotypic cultures of hippocampal slices; format: cell-based, rat
Method: Organotypic cultures of hippocampal slices were prepared as described (Becq, H., et al. (1999) J. Neurosci. Res. 58, 553-566) according to modified technique of Stoppini et al. (J. Neurosci. Methods 37, 173-182 (1991)). Hippocampal slices (400 μm) were cut from postnatal 7-day-old rat brains and incubated in culture medium in 5% CO2. Infections were performed on the 6th day of slice incubation by local pressure injection of virus via a patch pipette (tip diameter ˜1 μm) into the CA1 region of the hippocampus.
For electrophysiological recordings, slices were placed in a recording chamber and perfused with ACSF including in mM: 119 NaCl, 2.5 KCl, 2 CaCl2, 2 MgCl2, 26 NaHCO3, 1 NaH2PO4, 11 glucose, 0.01 bicuculline, 0.01 CNQX, 0.002 2-chloroadenosine (pH 7.4), in 5% CO2/95% O2. Synaptic responses were evoked by bipolar electrode with monophasic voltage pulses (1-10 V, 200 μs). The stimulating electrodes were placed over Schaeffer collateral fibers. NMDA evoked EPSCs were recorded at different holding potentials before, during, and after ifenprodil application in order to measure the I-V relationship. For analysis, at least 5 NMDA-evoked EPSCs were averaged for every experimental condition.

hippocampal neurons = test: Assay I: glutamate excitotoxicity in primary cultures of dissociated hippocampal neurons; format: cell-based, rat; conditions: 20 minute exposure to Glutamate (100 μM) and Glycine (10 μM); expression in neurons; n=5
Method: (A) Survival of hippocampal neurons in culture exposed to Glutamate (100 μM) and Glycine (10 μM) for a 20 minute period. 14 div neuronal cultures were transfected with GFP, NR2B-BD or RasGRF1-BD 24 hours prior to analysis. The neuronal cultures were then incubated with glutamate for 20 minutes, washed with culture media and returned to the incubator for an additional 24 hours. The cells were then fixed with PFA and stained with a neuronal specific antibody, Map2. […] (B) Percentage of propidium iodide-resistant (surviving) neurons in organotypic hippocampal slices (P5+7div) expressing GFP, NR2B-BD or […] in control conditions and after 20 minutes exposure to NMDA (50 μM). The fluorescence of propidium iodide (PI) was measured 24 hours later. PI enters damaged cells and is a convenient tool to determine neuronal cell death. For PI staining, the slices were incubated in culture medium containing 0.1 mg/ml PI for 2 h. GFP, NR2B-BD and […] were expressed using the SindBis expression system. Mean±SEM. N=3.
Assay I: primary cultures of dissociated hippocampal neurons (FIG. 7(A)). This method may be used to analyze the mechanisms of glutamate-dependent excitotoxicity (see e.g., Medina, et al., Eur J Neurosci. (1999) 11(4): 1167-78). Briefly, neuronal cell death was induced by a 20 minute exposure to Glutamate (100 μM) and Glycine (10 μM). […]

T1 sequence (Q00960 27-1482): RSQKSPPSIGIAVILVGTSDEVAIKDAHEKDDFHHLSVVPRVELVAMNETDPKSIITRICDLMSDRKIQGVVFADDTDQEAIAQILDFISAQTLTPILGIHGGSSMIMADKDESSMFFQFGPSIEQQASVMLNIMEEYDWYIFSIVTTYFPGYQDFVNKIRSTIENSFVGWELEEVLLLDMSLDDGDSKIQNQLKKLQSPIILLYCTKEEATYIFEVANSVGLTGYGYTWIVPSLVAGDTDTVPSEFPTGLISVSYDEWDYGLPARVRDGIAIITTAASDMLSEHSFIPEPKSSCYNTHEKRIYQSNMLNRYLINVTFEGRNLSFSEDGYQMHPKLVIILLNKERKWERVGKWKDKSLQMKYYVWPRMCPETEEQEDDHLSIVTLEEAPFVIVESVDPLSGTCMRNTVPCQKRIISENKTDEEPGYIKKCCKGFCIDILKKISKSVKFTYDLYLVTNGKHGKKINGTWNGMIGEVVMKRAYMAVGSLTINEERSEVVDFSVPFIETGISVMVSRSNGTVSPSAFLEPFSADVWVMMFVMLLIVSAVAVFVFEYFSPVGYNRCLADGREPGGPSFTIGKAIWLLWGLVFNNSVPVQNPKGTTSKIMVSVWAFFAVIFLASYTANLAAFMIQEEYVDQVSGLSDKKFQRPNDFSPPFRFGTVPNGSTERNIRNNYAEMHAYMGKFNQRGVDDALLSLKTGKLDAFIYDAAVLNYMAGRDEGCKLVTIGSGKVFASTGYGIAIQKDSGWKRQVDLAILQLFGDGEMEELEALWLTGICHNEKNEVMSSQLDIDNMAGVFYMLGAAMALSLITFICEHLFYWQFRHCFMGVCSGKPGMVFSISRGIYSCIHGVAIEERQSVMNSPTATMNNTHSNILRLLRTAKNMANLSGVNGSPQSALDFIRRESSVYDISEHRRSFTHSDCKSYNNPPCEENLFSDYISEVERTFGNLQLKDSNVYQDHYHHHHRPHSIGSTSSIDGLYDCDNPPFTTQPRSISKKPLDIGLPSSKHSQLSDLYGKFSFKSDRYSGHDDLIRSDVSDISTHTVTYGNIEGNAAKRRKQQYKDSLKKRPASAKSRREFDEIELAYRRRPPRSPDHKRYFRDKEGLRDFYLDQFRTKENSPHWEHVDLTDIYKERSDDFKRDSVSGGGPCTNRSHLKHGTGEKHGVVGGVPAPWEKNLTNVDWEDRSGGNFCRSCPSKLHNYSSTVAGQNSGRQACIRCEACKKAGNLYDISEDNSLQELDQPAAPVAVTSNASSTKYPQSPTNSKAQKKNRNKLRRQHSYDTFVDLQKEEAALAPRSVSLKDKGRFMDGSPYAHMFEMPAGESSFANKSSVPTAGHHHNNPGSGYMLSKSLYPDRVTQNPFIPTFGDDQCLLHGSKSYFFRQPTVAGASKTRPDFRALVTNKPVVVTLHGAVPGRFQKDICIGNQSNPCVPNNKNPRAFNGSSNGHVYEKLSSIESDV
T1 sequence (P28818 whole entry, the tested form may be a part): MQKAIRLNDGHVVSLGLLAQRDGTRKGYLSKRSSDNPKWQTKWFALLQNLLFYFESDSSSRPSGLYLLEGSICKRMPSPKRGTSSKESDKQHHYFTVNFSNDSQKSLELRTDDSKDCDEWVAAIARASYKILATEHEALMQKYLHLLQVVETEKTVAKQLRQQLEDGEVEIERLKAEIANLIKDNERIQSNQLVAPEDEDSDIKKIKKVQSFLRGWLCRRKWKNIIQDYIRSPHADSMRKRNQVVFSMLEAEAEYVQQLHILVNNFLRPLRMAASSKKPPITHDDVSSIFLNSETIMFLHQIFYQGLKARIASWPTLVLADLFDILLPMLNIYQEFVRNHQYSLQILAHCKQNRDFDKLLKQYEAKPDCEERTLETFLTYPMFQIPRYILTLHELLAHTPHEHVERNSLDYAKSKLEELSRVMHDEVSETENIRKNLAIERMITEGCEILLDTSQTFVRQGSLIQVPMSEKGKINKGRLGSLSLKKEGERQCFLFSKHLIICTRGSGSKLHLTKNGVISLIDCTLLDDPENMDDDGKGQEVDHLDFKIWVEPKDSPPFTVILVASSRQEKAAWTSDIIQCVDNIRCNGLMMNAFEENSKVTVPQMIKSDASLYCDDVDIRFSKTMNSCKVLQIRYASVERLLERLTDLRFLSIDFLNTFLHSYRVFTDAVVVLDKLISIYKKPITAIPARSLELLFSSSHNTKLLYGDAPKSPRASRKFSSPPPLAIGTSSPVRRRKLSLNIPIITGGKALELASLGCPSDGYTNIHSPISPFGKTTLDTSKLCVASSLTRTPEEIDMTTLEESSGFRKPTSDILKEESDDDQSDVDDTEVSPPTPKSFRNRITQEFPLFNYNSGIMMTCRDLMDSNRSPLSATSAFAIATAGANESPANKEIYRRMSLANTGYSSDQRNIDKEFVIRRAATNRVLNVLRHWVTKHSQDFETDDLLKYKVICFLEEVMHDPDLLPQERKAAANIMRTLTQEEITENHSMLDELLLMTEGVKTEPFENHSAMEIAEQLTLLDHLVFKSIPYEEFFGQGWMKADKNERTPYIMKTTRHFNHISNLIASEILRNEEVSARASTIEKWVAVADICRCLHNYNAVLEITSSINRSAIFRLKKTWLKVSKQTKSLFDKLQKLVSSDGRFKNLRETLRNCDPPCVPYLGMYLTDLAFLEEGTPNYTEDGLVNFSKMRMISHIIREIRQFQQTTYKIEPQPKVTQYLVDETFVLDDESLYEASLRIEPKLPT

B1: NR2B-BD: peptide of amino acids 886-1310 of the NR2B C-terminal domain that binds RasGRF1; used as NusA or EGFP fusion (protein)
chain: SPTATMNNTHSNILRLLRTAKNMANLSGVNGSPQSALDFIRRESSVYDISEHRRSFTHSDCKSYNNPPCEENLFSDYISEVERTFGNLQLKDSNVYQDHYHHHHRPHSIGSTSSIDGLYDCDNPPFTTQPRSISKKPLDIGLPSSKHSQLSDLYGKFSFKSDRYSGHDDLIRSDVSDISTHTVTYGNIEGNAAKRRKQQYKDSLKKRPASAKSRREFDEIELAYRRRPPRSPDHKRYFRDKEGLRDFYLDQFRTKENSPHWEHVDLTDIYKERSDDFKRDSVSGGGPCTNRSHLKHGTGEKHGVVGGVPAPWEKNLTNVDWEDRSGGNFCRSCPSKLHNYSSTVAGQNSGRQACIRCEACKKAGNLYDISKDNSLQELDQPAAPVAVTSNASSTKYPQSPTNSKAQKKNRNKLRRQHSYDTFVDL
modifications: left off: small tags and cut ends
notes: used as NusA or EGFP fusion
[1]
  co-immunoprecipitation of NR2B and RasGRF1: completely blocked
NMDA receptor
  portion of the ifenprodil-sensitive component of the evoked EPSCs: Neither of the expressed peptides decreased
Hippocampal neurons
  decrease of neuronal cell death induced by glutamate and glycine: 47±2%

From patent US7425614B2, “Neuroprotective therapeutics preventing ERK/MAPK activation through the NMDA receptor” (Children's Medical Center Corporation, priority 2003, dated 2008)
